Data on one molecule can be found in paper PMC3025549.

This assay concerns the target recombinant mjRNAP (RNA polymerase of M. jannaschii), wild type (M. jannaschii) (UniProt Q58445). As to the kind of experiment: native gel or EMSA. A general note: In EMSA bound probe runs differently from free probe, usually more slowly.

B1: mjTFIIB K87-A (natural protein)
chain: MVWLMEALKTKENETTKEKKLTTKVEKSEKKEENVREEEIVCPICGSKEVVKDYERAEIVCAKCGCVIKEKLFDIGPEWRAFDHEQAIKRCRVGAPMTYSVDYNEPIIIKENGEIKVVKIGELIDKIIENSENIRREGILEIAKCKGIEVIAFNSNYKFKFMPVSEVSRHPVSEMFEIVVEGNKKVRVTRSHSVFTIRDNEVVPIRVDELKVGDILVLAKELPNIEEDIEIDKKFSKILGYIIAEGYYDDKKIVLSYDYNEKEFINETIDYFKSLNSDITIYSKDLNIQIEVKNKKIINLLKKLRVKNKRIPSIIFKSPYEIKKSFIDGIFNGKDAKVFVSKELAEDVIFLLLQIKENATINKKSINDIEVYEVRRITNIYTNRKLEKLINSDFIFLKIKEINKVEPTSGYAYDLTVPNAENFVAGFGGFVLHNTIHDKGLSTVIDWRNKDSYGKDLSANKRAQLYRLRKWQRRIRVSDAAERNLAFALSELDRITSKLGLPRHVRENAAIIYRGAVEKGLIRGRSIEGVVAAAIYAACRRCRVPRTLDEIAEASRVDRKEIGRTYRFLARELNIKLTPTNPIDYVPRFASELGLPGEVESKAIQILQQAAEKGLTSGRGPTGVAAAAIYIASVLLGCRRTQREVAEVAGVTEVTIRNRYKELTEHLDIDVTL
Take B1: the recruitment activity relative to wild type (% of wild type) was 140.
